Here are results for one molecule from publication PMC5469797 (2017).

Assay [1] concerns the target T1, full-length murine urokinase-type plasminogen activator (muPA) (murine, UniProt P06869 21-433). Put plainly: SPR. On the technique in general: In SPR one partner is held on a chip, and binding of the other changes the refractive index at the surface.
The target in assay [2] is T2, catalytic serine protease domain of murine urokinase-type plasminogen activator (muPA), Gly2-Gly244, C122A (murine). Put plainly: SPR.
T2 sequence (chain, as listed by the source C122A): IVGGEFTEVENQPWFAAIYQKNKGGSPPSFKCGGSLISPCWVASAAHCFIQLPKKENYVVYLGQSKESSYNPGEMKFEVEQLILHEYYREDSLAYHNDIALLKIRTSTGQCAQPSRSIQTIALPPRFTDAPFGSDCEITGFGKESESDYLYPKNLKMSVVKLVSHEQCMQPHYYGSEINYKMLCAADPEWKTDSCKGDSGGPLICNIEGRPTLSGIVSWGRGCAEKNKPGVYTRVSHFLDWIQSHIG
The target in assay [3] is T1, full-length murine urokinase-type …. Put plainly: SPR. The source holds these as a separate data set.
Assay [4] deals with T2, catalytic serine protease domain of …. Briefly: SPR. The source holds these as a separate data set.
In assay [5] the target is T3, catalytic domain of muPA (Gly2-Gly244, C122A) inhibited at the active site with Glu-Gly-Arg-chloromethylketone (murine, irreversible active site binding ligand Glu-Gly-Arg-chloromethylketone (EGR-cmk) in the active site). Briefly: SPR; EGR-cmk inhibited.
T3 sequence (chain, as listed by the source C122A): as above
The target in assay [6] is T4, full-length muPA inhibited at the active site with Glu-Gly-Arg-chloromethylketone (murine, UniProt P06869 21-433, irreversible active site binding ligand Glu-Gly-Arg-chloromethylketone (EGR-cmk) in the active site). Briefly: SPR; EGR-cmk inhibited.
T4 sequence (P06869 21-433): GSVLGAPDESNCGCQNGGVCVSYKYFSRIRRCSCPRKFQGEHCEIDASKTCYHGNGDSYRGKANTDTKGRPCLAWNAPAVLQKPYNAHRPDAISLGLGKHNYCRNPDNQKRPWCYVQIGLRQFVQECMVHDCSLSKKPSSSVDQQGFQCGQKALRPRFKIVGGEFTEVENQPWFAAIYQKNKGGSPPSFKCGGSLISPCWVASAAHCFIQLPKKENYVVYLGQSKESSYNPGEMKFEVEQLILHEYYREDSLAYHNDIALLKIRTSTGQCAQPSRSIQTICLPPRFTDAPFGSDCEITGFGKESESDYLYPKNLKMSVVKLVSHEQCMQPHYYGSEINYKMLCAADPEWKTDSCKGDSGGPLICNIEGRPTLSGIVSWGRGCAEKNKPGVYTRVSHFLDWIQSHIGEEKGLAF
The target in assay [7] is T3, catalytic domain of muPA (Gly2-Gly244, …). Put plainly: SPR; EGR-cmk inhibited. The source holds these as a separate data set.
Assay [8] concerns the target T4, full-length muPA inhibited at the …. Put plainly: SPR; EGR-cmk inhibited. The source holds these as a separate data set.

T1 sequence (P06869 21-433): as above

B1: anti-muPA allosteric nanobody Nb7 (VHH)
VHH: QVQLQESGGGLVQPGGSLRLSCAASGFTLGYYAIGWFRRAPGKEREGVSCISSSGGSTNYADSVKGRFTISRDNAKNTVDLQMNSLKPEDTAIYYCAAEWVPPGYGATVQALCNNAGYGMEYWGKGTQVTVSS
Regarding B1, the koff turned out to be 0.00054 s⁻¹ in assay [1], 0.0011 s⁻¹ in assay [2], 0.00101 s⁻¹ in assay [5] and 0.00084 s⁻¹ in assay [6]. Further, the Kd in assay [3] turned out to be 7.5 nM; in assay [4], 11.2 nM; in assay [7], 16.7 nM; in assay [8], 19.3 nM.

Broadly, the koff is the rate constant with which the complex falls apart. Read a high koff as fast dissociation. For orientation: Kd means the concentration at which binding is half-saturated.
